Experimental data from paper PMC4056859.

How the values were obtained:
[1] = target: ht-ADH single-tryptophan variant W87in (W49F:W167Y) (Bacillus stearothermophilus); assay: SEC
[2] = target: ht-ADH single-tryptophan variant W167in (W49F:W87F) (Bacillus stearothermophilus); assay: SEC

| stoichiometry N [1] | stoichiometry N [2] | Substance |
| --- | --- | --- |
| 4 | – | ht-ADH single-tryptophan variant W87in (W49F:W167Y) (enzyme) |
| – | 4 | ht-ADH single-tryptophan variant W167in (W49F:W87F) (enzyme) |
